Measurements from patent US20200392227A1 (LYVGEN BIOPHARMA, published 2020).

T1: human FcRIIA protein (MednaBio, E1033) (human, UniProt P12318 34-218, limits assumed)
T1 construct: Bought; also called FcγRIIA
T1 sequence (looked up): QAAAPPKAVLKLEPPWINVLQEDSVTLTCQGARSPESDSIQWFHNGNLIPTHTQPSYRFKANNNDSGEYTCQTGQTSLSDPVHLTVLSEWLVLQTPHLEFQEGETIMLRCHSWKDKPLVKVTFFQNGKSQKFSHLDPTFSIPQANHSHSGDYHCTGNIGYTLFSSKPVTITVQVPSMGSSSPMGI

T2: human FcRIIB/C protein (MednaBio, E1034) (human, UniProt P31994 43-217, limits assumed)
T2 construct: Bought as FcRIIB/C; also called FcγRIIB; CD32B
T2 sequence (looked up): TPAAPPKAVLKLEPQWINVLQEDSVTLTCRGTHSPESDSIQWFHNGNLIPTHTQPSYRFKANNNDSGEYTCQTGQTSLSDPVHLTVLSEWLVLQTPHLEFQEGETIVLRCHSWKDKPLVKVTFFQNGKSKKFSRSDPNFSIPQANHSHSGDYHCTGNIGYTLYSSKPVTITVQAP

T3: human FcγRIIC expressed on CHO cells (human, UniProt P31995 43-323)
T3 construct: whole, on cells
T3 sequence (looked up): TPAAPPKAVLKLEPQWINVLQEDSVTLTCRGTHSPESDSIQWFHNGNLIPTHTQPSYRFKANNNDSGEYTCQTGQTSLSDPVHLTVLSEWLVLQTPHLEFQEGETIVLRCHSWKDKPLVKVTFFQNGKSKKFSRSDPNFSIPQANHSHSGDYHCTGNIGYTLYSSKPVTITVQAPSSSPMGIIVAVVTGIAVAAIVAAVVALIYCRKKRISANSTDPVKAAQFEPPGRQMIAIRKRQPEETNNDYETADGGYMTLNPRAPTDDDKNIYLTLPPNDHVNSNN

B1: anti-CD137 IgG1 with Fc variant G1m1 (antibody)
heavy: EVQLVQSGAEVKKPGESLRISCKGSGYSFSTYWISWVRQMPGKGLEWMGKIYPGDSYTNYSPSFQGQVTISADKSISTAYLQWSSLKASDTAMYYCARGYGIFDYWGQGTLVTVSSASTKGPSVFPLAPSSKSTSGGTAALGCLVKDYFPEPVTVSWNSGALTSGVHTFPAVLQSSGLYSLSSVVTVPSSSLGTQTYICNVNHKPSNTKVDKKVEPKSCDKTHTCPPCPAPELLSVFLFPPKPKDTLMISRTPEVTCVVVDVSHEDPEVKFNWYVDGVEVHNAKTKPREEQYNSTYRVVSVLTVLHQDWLNGKEYKCKVSNKALPAPIEKTISKAKGQPREPQVYTLPPSREEMTKNQVSLTCLVKGFYPSDIAVEWESNGQPENNYKTTPPVLDSDGSFFLYSKLTVDKSRWQQGNVFSCSVMHEALHNHYTQKSLSLSPGK
light: SYELTQPPSVSVSPGQTASITCSGDNIGDQYAHWYQQKPGQSPVLVIYQDKNRPSGIPERFSGSNSGNTATLTISGTQAMDEADYYCATYTGFGSLAVFGGGTKLTVLGQPKAAPSVTLFPPSSEELQANKATLVCLISDFYPGAVTVAWKADSSPVKAGVETTTPSKQSNNKYAASSYLSLTPEQWKSHRSYSCQVTHEGSTVEKTVAPTECS
notes: copies: 2 + 2
B2: anti-CD137 IgG2 with Fc variant G2m10 (antibody)
heavy: EVQLVQSGAEVKKPGESLRISCKGSGYSFSTYWISWVRQMPGKGLEWMGKIYPGDSYTNYSPSFQGQVTISADKSISTAYLQWSSLKASDTAMYYCARGYGIFDYWGQGTLVTVSSASTKGPSVFPLAPCSRSTSESTAALGCLVKDYFPEPVTVSWNSGALTSGVHTFPAVLQSSGLYSLSSVVTVPSSNFGTQTYTCNVDHKPSNTKVDKTVERKCCVECPPCPAPEVSSVFLFPPKPKDTLMISRTPEVTCVVVDVSHEDPEVQFNWYVDGVEVHNAKTKPREEQFNSTFRVVSVLTVVHQDWLNGKEYKCKVSNKGFPAPIEKTISKTKGQPREPQVYTLPPSREEMTKNQVSLTCLVKGFYPSDIAVEWESNGQPENNYKTTPPMLDSDGSFFLYSKLTVDKSRWQQGNVFSCSVMHEALHNHYTQKSLSLSPGK
light: B1 light
notes: copies: 2 + 2
B3: anti-CD137 IgG2 with Fc variant G2m2 (antibody)
heavy: EVQLVQSGAEVKKPGESLRISCKGSGYSFSTYWISWVRQMPGKGLEWMGKIYPGDSYTNYSPSFQGQVTISADKSISTAYLQWSSLKASDTAMYYCARGYGIFDYWGQGTLVTVSSASTKGPSVFPLAPCSRSTSESTAALGCLVKDYFPEPVTVSWNSGALTSGVHTFPAVLQSSGLYSLSSVVTVPSSNFGTQTYTCNVDHKPSNTKVDKTVERKCCVECPPCPAPPFLGGPSVFLFPPKPKDTLMISRTPEVTCVVVDVSHEDPEVQFNWYVDGVEVHNAKTKPREEQFNSTFRVVSVLTVVHQDWLNGKEYKCKVSNKGLPAPIEKTISKTKGQPREPQVYTLPPSREEMTKNQVSLTCLVKGFYPSDIAVEWESNGQPENNYKTTPPMLDSDGSFFLYSKLTVDKSRWQQGNVFSCSVMHEALHNHYTQKSLSLSPGK
light: B1 light
notes: copies: 2 + 2

Assays:
[1] = target: T4, human FcRI protein (MednaBio, E1031) (human, UniProt P12314 16-288, limits assumed); assay: BLI
T4 construct: Bought; loaded on anti-penta-HIS biosensors; also called FcγRI
T4 sequence (P12314 16-288 limits assumed): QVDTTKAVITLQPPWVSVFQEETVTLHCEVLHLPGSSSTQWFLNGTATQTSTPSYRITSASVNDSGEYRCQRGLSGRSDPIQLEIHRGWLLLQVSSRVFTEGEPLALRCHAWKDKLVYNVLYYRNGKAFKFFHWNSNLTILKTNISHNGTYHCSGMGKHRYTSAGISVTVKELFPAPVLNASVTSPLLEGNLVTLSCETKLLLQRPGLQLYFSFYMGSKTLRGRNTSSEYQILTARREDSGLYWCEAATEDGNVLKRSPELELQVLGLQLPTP
Procedure: (§1) These IgG mutants were tested for binding to a panel of human Fc receptors (FcRs), including FcRn, using the Octet Red96 System (ForteBio, Model #Red96). Human FcR proteins were purchased commercially (FcRn, MednaBio, E1032; FcRI, MednaBio, E1031; FcRIIA, MednaBio, E1033; FcRIIB/C, MednaBio, E1034; FcRIIIA-F158, MednaBio, E1036; FcRIIIA-V158, MednaBio, E1035; FcRIIIB, MednaBio, E1037). All Fey receptor assays were performed at pH 7.2; all FcRn assays were performed at pH 6. The Fey receptors were loaded onto anti-penta-HIS1K (ForteBio, Cat #18-5122) biosensors at a concentration of 20 μg/mL. The loaded biosensors was then be dipped into an 8-point 1:3 dilution series of the test IgG molecules (including controls and the mutants described herein) in PBS with 0.1% BSA, 0.02% Tween-20 (pH 7.2) at a starting concentration of 300 nM. Kinetic analysis was performed using a 1:1 binding model and global fitting.

[2] = target: T1, human FcRIIA protein (MednaBio, E1033); assay: BLI
Procedure: as §1

[3] = target: T2, human FcRIIB/C protein (MednaBio, E1034); assay: BLI
Procedure: as §1

[4] = target: T5, human FcRIIIA-F158 protein (MednaBio, E1036) (human, UniProt P08637 17-208); assay: BLI
T5 construct: Bought; also called FcγRIIIA(F)
T5 sequence (P08637 17-208 limits assumed): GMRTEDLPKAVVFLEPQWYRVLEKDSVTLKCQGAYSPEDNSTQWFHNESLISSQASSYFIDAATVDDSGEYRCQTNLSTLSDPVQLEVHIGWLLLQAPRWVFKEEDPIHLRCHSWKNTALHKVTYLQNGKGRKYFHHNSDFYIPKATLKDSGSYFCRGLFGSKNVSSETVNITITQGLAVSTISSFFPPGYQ
Procedure: as §1

[5] = target: T6, human FcRIIIA-V158 protein (MednaBio, E1035) (human, UniProt P08637 17-208); assay: BLI
T6 construct: Bought; also called FcγRIIIA(V); FcgRIIIA(V)
T6 sequence (P08637 17-208 F176V): as the sequence (P08637 17-208 limits assumed) above, with F160V counted along it
Procedure: as §1

[6] = target: T7, human FcRIIIB protein (MednaBio, E1037) (human, UniProt O75015 17-200); assay: BLI
T7 construct: Bought; also called FcγRIIIB; FcgRIIIB
T7 sequence (O75015 17-200 limits assumed): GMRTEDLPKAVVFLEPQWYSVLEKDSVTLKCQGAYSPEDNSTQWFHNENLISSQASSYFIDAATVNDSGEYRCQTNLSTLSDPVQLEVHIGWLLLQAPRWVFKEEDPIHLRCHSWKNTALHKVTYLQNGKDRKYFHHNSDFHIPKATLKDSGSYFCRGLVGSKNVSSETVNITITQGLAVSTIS
Procedure: as §1

[7] = target: T8, human FcRn protein (MednaBio, E1032) (human, UniProt P55899 24-297; P61769 21-119); assay: BLI
T8 construct: Bought; assays at pH 6
T8 sequence (P55899 24-297 limits assumed, form in doubt, chain 1 of 2): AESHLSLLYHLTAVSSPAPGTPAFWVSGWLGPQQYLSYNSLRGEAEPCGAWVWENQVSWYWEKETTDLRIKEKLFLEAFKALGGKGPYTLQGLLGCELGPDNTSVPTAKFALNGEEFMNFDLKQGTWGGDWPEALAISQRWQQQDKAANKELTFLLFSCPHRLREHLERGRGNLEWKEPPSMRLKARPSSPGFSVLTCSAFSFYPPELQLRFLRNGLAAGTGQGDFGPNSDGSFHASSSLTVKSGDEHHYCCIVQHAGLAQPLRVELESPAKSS
T8 sequence (P61769 21-119 limits assumed, form in doubt, chain 2 of 2): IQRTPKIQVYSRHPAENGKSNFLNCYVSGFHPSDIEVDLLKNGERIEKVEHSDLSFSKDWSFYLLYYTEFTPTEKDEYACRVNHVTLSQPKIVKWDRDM
Procedure: as §1

[8] = target: T3, human FcγRIIC expressed on CHO cells; assay: FACS, CHO cells expressing FcγRIIC
Procedure: FIGS. 1A-1W are charts showing binding activity of various IgG variants as indicated to different types of Fcγ receptors expressed on CHO-K1 cells at the various concentrations as indicated. The concentrations of each IgG variant, from left to right, are 0 μg/ml, 0.3 μg/ml, 1 μg/ml, 3 μg/ml, and 10 μg/ml in FIGS. 1A-1C, 1E-J, 1L-1M, 1P-1R, and 1T-1V. For FIGS. 1D, 1K, 10, 1S, and 1w the bars, from left to right, correspond to the following concentrations of IgG variant: 0.3 μg/ml, 1 μg/ml, 3 μg/ml, and 10 μg/ml.
(§2) For FACS analysis of the IgG mutants' binding to different FcγRs, FcγR overexpressing CHO cells were harvested using trypsin-EDTA and were suspended in cold staining buffer (3% BSA in PBS). Test IgG mutants, which were diluted in staining buffer, were added into the cells. The mixture was incubated 4° C. for 2 hours, and then washed twice with cold staining buffer and re-suspended in PE-labeled anti-human IgG followed by incubation at 4° C. for 2 hours. The mixture was washed twice with staining buffer and re-suspended in 2% PFA in PBS for FACS.

[9] = target: T9, human FcγRI expressed on CHO cells (human, UniProt P12314 16-374); assay: FACS, CHO cells expressing FcγRI
T9 construct: whole, on cells
T9 sequence (P12314 16-374): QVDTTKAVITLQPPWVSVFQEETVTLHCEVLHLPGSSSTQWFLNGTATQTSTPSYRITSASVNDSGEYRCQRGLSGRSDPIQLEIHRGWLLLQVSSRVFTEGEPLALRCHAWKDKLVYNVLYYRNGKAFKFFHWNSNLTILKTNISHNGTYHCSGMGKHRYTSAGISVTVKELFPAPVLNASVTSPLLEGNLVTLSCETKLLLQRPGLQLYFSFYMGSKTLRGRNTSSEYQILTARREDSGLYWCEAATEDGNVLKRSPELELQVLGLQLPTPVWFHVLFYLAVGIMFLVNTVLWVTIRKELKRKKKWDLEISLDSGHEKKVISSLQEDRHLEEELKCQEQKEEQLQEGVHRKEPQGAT
Procedure: as §2

Row | Binder | Kd [1] | koff [1] | kon [1] | Kd [2] | koff [2] | kon [2] | binding result [3] | Kd [4] | koff [4] | kon [4] | binding result [5] | binding result [6] | Kd [7] | koff [7] | kon [7] | binding result [8] | other results
1 | B1 | 200 nM | 0.13 s⁻¹ | 650000 M⁻¹ s⁻¹ | 440 nM | 0.11 s⁻¹ | 250000 M⁻¹ s⁻¹ | no binding (tested: 300 nM) | 300 nM | 0.1 s⁻¹ | 350000 M⁻¹ s⁻¹ | no binding (tested: 300 nM) | no binding (tested: 300 nM) | 11 nM | 0.0078 s⁻¹ | 700000 M⁻¹ s⁻¹ | no binding (tested: 10 ug/ml) | 
2 | B2 |  |  |  | 17000 nM | 0.35 s⁻¹ | 21000 M⁻¹ s⁻¹ | no binding (tested: 300 nM) |  |  |  | no binding (tested: 300 nM) | no binding (tested: 300 nM) | 21 nM | 0.0088 s⁻¹ | 420000 M⁻¹ s⁻¹ | no binding (tested: 10 ug/ml) | binding result [1]: no binding (tested: 300 nM); binding result [4]: no binding (tested: 300 nM); binding result [9]: no binding (tested: 10 ug/ml)
3 | B3 | 2 nM | 0.00091 s⁻¹ | 440000 M⁻¹ s⁻¹ | 68 nM | 0.057 s⁻¹ | 840000 M⁻¹ s⁻¹ |  | 250 nM | 0.07 s⁻¹ | 280000 M⁻¹ s⁻¹ |  | no binding (tested: 300 nM) | 10 nM | 0.0091 s⁻¹ | 900000 M⁻¹ s⁻¹ |  | Kd [3]: 160 nM; koff [3]: 0.099 s⁻¹; kon [3]: 620000 M⁻¹ s⁻¹; Kd [5]: 160 nM; koff [5]: 0.033 s⁻¹; kon [5]: 210000 M⁻¹ s⁻¹
